From the nanobody polyreactivity screen of Harvey et al. (2022)

Assay: yeast display, Sf9 membrane polyspecificity reagent, FACS + sequencing; frameworks hold sequencing errors
Outline: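 Genes from sorted yeast were amplified by colony PCR, read by MiSeq 2 × 250 sequencing and filtered on CDR length. These cells carried a synthetic nanobody library in Saccharomyces cerevisiae BJ5465 and were sorted by FACS into low and high (top ~1%) gates on anti-HA and streptavidin fluorescence. Polyreactivity is labelled according to the gate of origin.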

| Sequence | polyreactivity (PSR sort gate) |
| --- | --- |
| QVQLVESGGGLVQARGSLRLSCAASGSTLRRYAMGWYRQAPGKERELVAAISSSGGSTYYADSVKGRFTISRDNAKNTVYLQMNSLKPEDTAVYYCAALVRKRVNTYQGYYPGDYWGQGTQGTVSS | high polyreactivity |
| QVQLVESGGGLVQAGGNLRLSCASSGIIFFKYAMGWYRPEPGKERELVAAITSGGSTYYADSVKWRFTISRDNAKKTVYLQMNSLKPEDTAVYYCAAAGGRFIRYCYWGQGTQVTVSS | high polyreactivity |
| QVQLVESGGGLVQAGGSLRLSCAASGRTFKYYTMGWYRQAPGKERELVAGINGGGGSTYYADSVKGRFTISRDNAKNTVYLQMNSMKPEDTAVYYCAVDPFAYFSYWTYDYWGQGTQVTVSS | high polyreactivity |
| QVQLVESGGGLVQAGGSLRLSCAASGSTFSVYAMGWYRQAPGKERELVASISSSVGRTFYADSVKGRFTISRDNSKNTVYLQMNSLKPEDTAVYYCNAGVRYSGFDYWGQGTQVTVSS | high polyreactivity |
| QVQLVESGGGLVQAGGSLRLSCAASGRNFYPYAMVWYRQAPGKERELVAAISKSGGRTYYADSVKGRFTISRDNAKNTVDLQMNSLKPEDTAVYYCNAAPGYTYVTYDYWGQGTLVTVSS | high polyreactivity |
| QVQLVESGGGLVQAGGSLRLSCAASGFTFWRYAMGWYRQAPGKERELVAAISYSGGSTYYADSVKGRFTISRDYAKNTVYLQMNSLKPEDTAVYYCNAETGYGVYRTKYGYWGQGTQVTVSS | high polyreactivity |
| QVQLVESGGGIVQAGGSLRLSCAASGSTLDDYVMGWYRHAPGKDRQLVAAISSSGSGTYYADSVKGRFTISRDNAKNTVYLQMNSLKQEDTAVYYCAAAYSYSGYGYYTYDYWGLGTQVTVSS | low polyreactivity |
| QVQLVESGGGLVQAGGSLRLICAASGRIYIKNAMGWYRQAPGKERELVAAISSGSSTYYADSVKGRFTISRDNAKNSVYLQMYSLKPEDTAVYYCAAPDYRNGVRYPLDYWGQGTQVTVSS | low polyreactivity |
| QVQLVESGGGLVQAGGSLRLSCAASGIIFDDYAMGWYRQAPGKERELVAAITDSGGSTYYADSVKGRFTISRDNAKNTVYLQMNSLKPEVTAVYYCAARTQRRVNRVGYRSNYYYWGQGTQVTVSS | low polyreactivity |
| QVQLVESGGGLVQAGGSLRLICAASGSIFYNNDMGWYRQAPGKERELVAAINWNGGSTYYADSVKGRFTISRDNAKNTVYLQMNSLKPEDTAVYYCNAEPFWYNYGYDDDYWGQGTQVTVSS | high polyreactivity |
| QVQLVESGGGLVQAGGSLRLSCAASGSTFKYNAMGWYRQAPGKERELDAAISSSGGSTSYADSVKGRFTISRDNAKNTVYLQMNSLKPEDTAVYYCAADSYPAYLGFVGFDYWGQGSQVTVSS | low polyreactivity |
| QVQLVESGGGLVQAGGSLRLSCAASGSTFAYYTMGWYRQAPGKERELVAAISAGGGSTYYADSVKGRFTISRDNAKNTVYLQMNSLKPEDTAVYYCAVRVLIHTNTRRLDYWGQGTQVTVSS | high polyreactivity |
| QVQLVESGGGLVQAGGSLRLSCAASGRIFAIYAMGWYRQAPGKERELVAGITYSAGSTYYADSVKGRFTISRDNAKNTVYLQMNSLKREDTAVYYCAALEYTSHRYGYDYWGQGTQVTVSS | low polyreactivity |
| QVQLVESGGGLVQAGCSLRLSCAASGSTFYAYTKGGYRQAPGKERELVAAISWSDGTTYADSVKGRFTISRDNAKNTVYLQMNSLKPEDTAVYYCATDDVGPGLGYNYWGEGTQVTVSS | low polyreactivity |
| QVQLVESGGGLVQAGGSLRLSCAASGSTFGKYAMGWYRPAPGKERELVAAITNGGRTNYADSVKGRFTISRDNAMNTVYLQMNSLKPEDTAVYYCNKARYGTDDYDYWGQGTQVTVSS | low polyreactivity |
| QVQLVESGGGLVQAGGSLRLSCAASGSTLAYNAMGWYRQAPGKERELVAAISSNGDSTYYADSVKGRFTISRDNAKNTVYLQMNSLKPEDTAVYYCAAGYYSRYYEAFEYYYWGQGTQVTVSS | high polyreactivity |

| Sequence | polyreactivity (PSR sort gate) |
| --- | --- |
| QGQLVESGGGLVQAGGSLRLSCAASGRTFRYNAMGWYRQAPGKERELVAAITWGGGSTDYADSVKGRFTISRDNAKNTVYLQMHSLKPEDTAVYYCNADYIGNYHSIYQYDYWGQGTQVTVSS | low polyreactivity |
| QVQLVESGGGLVQAGGSLRLSCAASGRTFSYNAMGWYRQAPGKERELVAAITSSGGGTSYADSVKGRFTISRDNAKNTVYLQMNSLKPEDTAVYYCNRVLPHPDGYGVGARGYWGQGTQVTVSS | high polyreactivity |
| QVQLVESGGGVVQAGGSLRLSCAASGRTIYFYAMGWYRQAPGKERELVAAITGSGGRTYYADSVKGRFTISRDHAKNTVYLQMNSLKTEDTAVYYCAAVPPPLARLYVAAKRFDSWGQGTQVTVSS | low polyreactivity |
| QVQLVESGGGLVQAGGSLRLSCAASGRIFVYYAMGWYRQAPGKERELVATISSGGSTYYADSVKGRFTISRDNAKNTVYLQMNSLKPEDTAVYYCAADNVNRYLAYYYKGDYWGQGTQVTVSS | low polyreactivity |
| QVQLVESGGGLVQAGGSLRLSCAASGFIFGNYPMGWYRQAPGKQRELVAAITSGGNTNYADSVKGRFTISRDNAKNTVYLQMNSLKPEDTAVYYCAADRNLYWVFSPNETEDYWGQGTQVTVSS | low polyreactivity |
| HVHLVESGGGLVQAGGSLPLSCAASGFIISHYTMGWYRQAPGKERELVAGISWSGGNTYYADFVKGRFTISRDHAKNTVYLQMNSLKPEDTAVYYCNADWIGVPLAYDYWGQGTQVTVSS | low polyreactivity |
| QVQRVESGGGLGQAGGILLLSCAASGFTFKWYSMGWYRQARGKERELVAGISRRGGTTNYADSFKGRFTISRHNAKNTVNLQINSLKPEDPPVYYCAAESQLTKYYYWGQGTQVTVSS | high polyreactivity |
| QVQLVESGGGLVQAGGSLRLSCAASGRNLVQYTMGWYRQAPGKERELVAVISWRECRTYYADSVKGRFTISRDNAKNTVFLQMNSLKPVDTAVYYCATSGSFWQRYYWGQGTQVTVSS | low polyreactivity |
| QVQLVDSGGGLVQAGGSLRLSCAASGSTLGENAMGWYRQAPGKERELVSAIRQSSGRTYYADSVKGRFTISRDNAKNTVYLQMNSLKPEDTAVYYCANYYWGQGTQVTVST | low polyreactivity |
| QVQLVESGGGLVQAGGSLRLSCAASGIIFRKYAMGWYRQAPGKERELVAAISWRGGSTYYADSVKGRFTISRDNAKNTVYLQMNSLKPEDTAVYYCAAVAQITGYDYWGQGTQVTVSS | high polyreactivity |
| QVQLVESGGGLVQAGGSLRLSCAASGFIFYTYAMGWYRQAPGKERELVAAISWRGGRTYYADSVKGRFTISRDNAKNTVYLQMNSLKPEDTAVYYCNAVTSSGEYDYWGQGTQVTVSS | high polyreactivity |
| QVQLVESGGGLVQAGGSLRLSCAASGLIFVQYVMGWYRQAPGKERELVAAITEDGNTYYADSVKGRFTISRDNAKNTVYLQMNSLKPEDTAVYYCNAVLRSYDFWTGYGYWGQGTQVTVSS | low polyreactivity |
| QVQLVESGGRLVQAGGSLRLICAASGSTFYPYAMGWYRQAPGKERELSTDADSVKGRFTISRDNAKNSVYLQMNSLKPEDTAVYYCAALHWRWYDYWGQGTQVTVSS | low polyreactivity |
| QVQLVESGGGLVQAGGSLRLSCAASGSIFDNAMGWYRQAPGKERELVAAISLSGSRTYYADSVKGRFTISRDNAKNTDYLQMNSLKPEDTAVYYCNTELVYYSTYDYWGQGTQVTVSS | low polyreactivity |
| QLQLVESGGGLVQAGGSLRLSCAASGSTFRYYAMGWYRQAPGKERELVAAISRTGGSTYYADSVKVRFTISRDNAKNTVYLQMNSLKPEDTAVYYCNVRQFLNRYTSWDYRYHYDYWGQGSQVTVSS | high polyreactivity |
| QVQLVESGGGLVQAGGSLRLSCAASGLTFTYYAMGWYRQAPGKERELVAVISRRGGSTYYADSVKGRFTISRDNAKNTVYLQMNSLKPEDTAVYYCAATNLQSAYDYWGHGTQVTVSS | high polyreactivity |
